Data reported in patent publication US11844843 (DYNE THERAPEUTICS, dated 2023).
Residue numbers refer to the chain shown, from its start. Names and notes keep the numbering of the source.

T1: recombinant cynomolgus monkey (Macaca fascicularis) TfR1 (cynomolgus monkey (Macaca fascicularis), UniProt Q5RDH6 87-760 (Pongo abelii entry), limits assumed)
T1 construct: Recombinant protein; also called cTfR1; cyTfR1
T1 chain: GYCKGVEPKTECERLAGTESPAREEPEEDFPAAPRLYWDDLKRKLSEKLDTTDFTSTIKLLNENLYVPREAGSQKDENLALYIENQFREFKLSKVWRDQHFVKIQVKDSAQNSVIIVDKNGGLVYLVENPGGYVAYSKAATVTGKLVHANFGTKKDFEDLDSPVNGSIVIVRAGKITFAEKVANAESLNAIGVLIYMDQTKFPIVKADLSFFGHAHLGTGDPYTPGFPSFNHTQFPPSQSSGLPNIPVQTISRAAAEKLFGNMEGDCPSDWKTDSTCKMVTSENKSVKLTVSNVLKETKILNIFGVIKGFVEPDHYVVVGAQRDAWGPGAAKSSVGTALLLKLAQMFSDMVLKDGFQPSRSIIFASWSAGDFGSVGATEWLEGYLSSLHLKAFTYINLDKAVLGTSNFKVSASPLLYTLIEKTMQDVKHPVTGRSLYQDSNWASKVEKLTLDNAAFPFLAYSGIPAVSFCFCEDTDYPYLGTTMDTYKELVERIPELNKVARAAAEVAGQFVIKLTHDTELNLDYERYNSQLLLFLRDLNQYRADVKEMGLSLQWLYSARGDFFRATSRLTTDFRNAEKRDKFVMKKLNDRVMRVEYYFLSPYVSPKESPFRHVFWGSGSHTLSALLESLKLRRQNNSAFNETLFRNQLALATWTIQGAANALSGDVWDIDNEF

B1: conjugate of humanized anti-TfR Fab 3A4 VH3/Vκ4 with DMPK-targeting oligonucleotide ASO300 (Fab, V domains shown)
VH: EVQLVQSGSELKKPGASVKVSCTASGFNIKDDYMYWVRQPPGKGLEWIGWIDPENGDTEYASKFQDRVTVTADTSTNTAYMELSSLRSEDTAVYYCTLWLRRGLDYWGQGTLVTVSS
VL: DIVMTQSPLSLPVTPGEPASISCRSSKSLLHSNGYTYLFWFQQRPGQSPRLLIYRMSNLASGVPDRFSGSGSGTDFTLKISRVEAEDVGVYYCMQHLEYPFTFGGGTKVEIKR
modifications: oligonucleotide ASO300 conjugated to the Fab via linker; residue and chain not stated
notes: also called 3A4 (VH3/Vk4) conjugate
B2: conjugate of humanized anti-TfR Fab 5H12 VH5 (C33D)/Vκ4 with DMPK-targeting oligonucleotide ASO300 (Fab, V domains shown)
VH: QVQLVQSGAEVKKPGASVKVSCKASGYSFTDYDINWVRQAPGQGLEWMGWIYPGSGNTRYSERFKGRVTITRDTSASTAYMELSSLRSEDTAVYYCAREDYYPYHGMDYWGQGTLVTVSS
VL: DIVMTQSPDSLAVSLGERATINCRASESVDGYDNSFMHWYQQKPGQPPKLLIFRASNLESGVPDRFSGSGSGTDFTLTISSLQAEDVAVYYCQQSSEDPWTFGQGTKLEIKR
modifications: oligonucleotide ASO300 conjugated to the Fab via linker; residue and chain not stated
notes: also called 5H12 (VH5-C33D/Vk4) conjugate
B3: conjugate of humanized anti-TfR Fab 5H12 VH5 (C33Y)/Vκ3 with DMPK-targeting oligonucleotide ASO300 (Fab, V domains shown)
VH: B2 VH with D33Y
VL: B2 VL with M4L, G72R
modifications: oligonucleotide ASO300 conjugated to the Fab via linker; residue and chain not stated
notes: also called 5H12 (VH5-C33Y/Vk3) conjugate
B4: humanized anti-TfR Fab 3M12 VH3/Vκ3 (Fab, V domains shown)
VH: QVQLQESGPGLVKPSQTLSLTCSVTGYSITSGYYWNWIRQPPGKGLEWMGYITFDGANNYNPSLKNRVSISRDTSKNQFSLKLSSVTAEDTATYYCTRSSYDYDVLDYWGQGTTVTVSS
VL: DIQMTQSPSSLSASVGDRVTITCRASQDISNFLNWYQQKPGQPVKLLIYYTSRLHSGVPSRFSGSGSGTDFTLTISSLQPEDFATYYCQQGHTLPYTFGQGTKLEIKR
notes: also called 3M12 (VH3/Vk3)
B5: humanized anti-TfR Fab 3M12 VH4/Vκ2 (Fab, V domains shown)
VH: B4 VH with S23T, M49I
VL: B4 VL with Y87F
notes: also called 3M12 (VH4/Vk2)
B6: humanized anti-TfR Fab 3A4 VH3/Vκ4 (Fab, V domains shown)
VH: B1 VH
VL: B1 VL
notes: also called 3A4 (VH3/Vk4)
B7: humanized anti-TfR Fab 5H12 VH5 (C33D)/Vκ4 (Fab, V domains shown)
VH: B2 VH
VL: B2 VL
notes: also called 5H12 (VH5-C33D/Vk4)
B8: 5-H12 mouse monoclonal anti-TfR antibody (antibody, V domains shown)
VH: QIQLQQSGPELVRPGASVKISCKASGYSFTDYCINWVNQRPGQGLEWIGWIYPGSGNTRYSERFKGKATLTVDTSSNTAYMQLSSLTSEDSAVYFCAREDYYPYHGMDYWGQGTSVTVSS
VL: DIVLTQSPTSLAVSLGQRATISCRASESVDGYDNSFMHWYQQKPGQPPKLLIFRASNLESGIPARFSGSGSRTDFTLTINPVEAADVATYYCQQSSEDPWTFGGGTKLEIK
notes: Mouse monoclonal IgG
B9: 3-A4 mouse monoclonal anti-TfR antibody (antibody, V domains shown)
VH: EVQLQQSGAELVRPGASVKLSCTASGFNIKDDYMYWVKQRPEQGLEWIGWIDPENGDTEYASKFQDKATVTADTSSNTAYLQLSSLTSEDTAVYYCTLWLRRGLDYWGQGTSVTVSS
VL: DIVMTQAAPSVPVTPGESVSISCRSSKSLLHSNGYTYLFWFLQRPGQSPQLLIYRMSNLASGVPDRFSGSGSGTAFTLRISRVEAEDVGVYYCMQHLEYPFTFGGGTKLEIK
notes: Mouse monoclonal IgG; also called 3-A04
B10: 3-M12 mouse monoclonal anti-TfR antibody (antibody, V domains shown)
VH: DVQLQESGPGLVKPSQSLSLTCSVTGYSITSGYYWNWIRQFPGNKLEWMGYITFDGANNYNPSLKNRISITRDTSKNQFFLKLTSVTTEDTATYYCTRSSYDYDVLDYWGQGTTLTVSS
VL: DIQMTQTTSSLSASLGDRVTISCRASQDISNFLNWYQQRPDGTVKLLIYYTSRLHSGVPSRFSGSGSGTDFSLTVSNLEQEDIATYFCQQGHTLPYTFGGGTKLEIK
notes: Mouse monoclonal IgG

Target: T2, recombinant human TfR1 (transferrin receptor protein 1) (human, UniProt P02786 89-760)
T2 construct: Recombinant protein in SPR and ELISA; they were assigned to this molecule; also called hTfR1; huTfR1
Experiment: ELISA, recombinant TfR1 coated, Fab-ASO300 conjugate (row 'Conjugate binding affinity ELISA')

EC50 [nM] | Binder
2.8 | B1
110 | B2
33.4 | B3

Target: T1, recombinant cynomolgus monkey (Macaca …)
Experiment: as above

EC50 [nM] | Binder
7.6 | B1
10.2 | B2
2.3 | B3

Target: T2, recombinant human TfR1 (transferrin …)
Experiment: kinetic analysis (Biacore), Table 7; TfR1 species not stated

Kd [nM] | koff [s⁻¹] | kon [M⁻¹ s⁻¹] | Binder
0.345 | 8.34e-05 | 242000 | B4
0.396 | 9.98e-05 | 252000 | B5
1.5 |  |  | B6
0.991 | 0.000672 | 678000 | B7

Target: T2, recombinant human TfR1 (transferrin …)
Experiment: Avg KD, antibody alone; method not stated in Table 11

Kd [nM] | Binder
202 | B8
0.436 | B9
0.768 | B10

Target: T1, recombinant cynomolgus monkey (Macaca …)
Experiment: as above

Kd [nM] | Binder
12 | B8
2.32 | B9
5.18 | B10

Target: T2, recombinant human TfR1 (transferrin …)
Experiment: Carterra LSA SPR, 25 C; IgG captured, hTfR1 as analyte; 1:1 fit
Description: Selected anti-TfR1 antibodies were tested for their binding affinity to human TfR1 for measurement of Ka (association rate constant). Kd (dissociation rate constant), and K_D (affinity). […] The binding experiment was performed on Carterra LSA at 25° C. An anti-mouse IgG and anti-human IgG antibody "lawn" was prepared on a HC30M chip by amine coupling. The IgGs were captured on the chip. Dilution series of hTfR1, cyTfR1, and hTfR2 were injected to the chip for binding (starting from 1000 nM, 1:3 dilution, 8 concentrations).
Binding data were referenced by subtracting the responses from a buffer analyte injection and globally fitting to a 1:1 Langmuir binding model for estimate of Ka (association rate constant), Kd (dissociation rate constant), and K_D (affinity) using the Carterra™ Kinetics software, 5-6 concentrations were used for curve fitting.

Kd [nM] | kon [M⁻¹ s⁻¹] | Binder
208 | 66700 | B8
0.436 | 447000 | B9
0.768 | 166000 | B10

Target: T2, recombinant human TfR1 (transferrin …)
Experiment: ELISA, recombinant TfR1 coated, unconjugated Fab (row 'Fab binding affinity ELISA')

EC50 [nM] | Binder
0.6 | B4
0.4 | B5
1.5 | B6
6 | B7

Target: T1, recombinant cynomolgus monkey (Macaca …)
Experiment: as above

EC50 [nM] | Binder
4.7 | B4
1.4 | B5
122 | B6
3.5 | B7

Target: T2, recombinant human TfR1 (transferrin …)
Experiment: Table 14, unconjugated Fab, d9 (after 9 days at 40 C); method not named

Binding affinity [nM] | Binder
1.49 | B4
0.5 | B5
0.46 | B6
92.3 | B7

Target: T1, recombinant cynomolgus monkey (Macaca …)
Experiment: as above

Binding affinity [nM] | Binder
15.6 | B4
5.01 | B5
878 | B6
0.63 | B7

Target: T2, recombinant human TfR1 (transferrin …)
Experiment: Table 14, Fab-ASO300 conjugate; method not named

DMPK oligo conjugate binding [nM] | Binder
2.84 | B1
110 | B2

Target: T1, recombinant cynomolgus monkey (Macaca …)
Experiment: Table 14, Fab-ASO300 conjugate; method not named

DMPK oligo conjugate binding [nM] | Binder
7.59 | B1
10.2 | B2

Target: T2, recombinant human TfR1 (transferrin …)
Experiment: Biacore, d0; TfR1 species not stated

Kd [nM] | Binder
0.345 | B4
0.396 | B5
1.5 | B6
0.991 | B7

Target: T2, recombinant human TfR1 (transferrin …)
Experiment: Table 14, unconjugated Fab, d0; method not named (values equal ELISA row of Table 13)

Binding affinity [nM] | Binder
0.6 | B4
0.4 | B5
1.5 | B6
6 | B7

Target: T1, recombinant cynomolgus monkey (Macaca …)
Experiment: as above

Binding affinity [nM] | Binder
4.7 | B4
1.4 | B5
122 | B6
3.5 | B7

Target: T2, recombinant human TfR1 (transferrin …)
Experiment: Biacore, d25; TfR1 species not stated

Kd [nM] | Binder
0.515 | B4
0.51 | B5
1.35 | B6
3.01 | B7
